{"source": "paper PMC11742986", "test_system": "RcnR (Salmonella enterica serovar Typhimurium SL1344 (100% sequence identity to E. coli RcnR))", "experiment": "fluorescence anisotropy", "settings": "Ni(II), 1:1 NiII:RcnR tetramer; 10 nM DNA, 60 mM NaCl, 240 mM KCl, 10 mM HEPES pH 7.5, 25 C, anaerobic, Chelex-treated N2-purged buffers; apo-RcnR Kd 1.5e-7 M is from earlier work (ref 39)", "data": [{"substance": "rcnRA operator-promoter", "values": [{"measurement": "Kd", "value": 3.09, "unit": "µM"}]}]}
